Here are results for one substance from PMC9588798.

The target in this assay is Human IgM heavy (μ) chain of the full-length IgM pentamer from myeloma (human) (UniProt P01871). The assay can be described thus: cryo-EM structure; full-length human IgM pentamer without secretory component, 0.25 mg/ml, in PBS; single-particle cryo-EM, 3D variability analysis and focused refinement on subunit 1; models PDB 6KXS, 4JVU and 2AGJ rigidly docked.

Usually stoichiometry N stands for the number of molecules, sites or subunits per partner or assembly. “Human IgM heavy (μ) chain of the full-length IgM pentamer from myeloma (from UniProt P01871 106-433) (natural protein)” displayed a stoichiometry N of 10.
